Results taken from the FLAb antibody collection (doi:10.7554/elife.23156).

B1: scFv; the commonest letter at each place (parent)
chain 1: EVKLDETGGGLVQPGRPMKLSCVASGFTFSDYWMNWVRQSPEKGLEWVAQIRNKPYNYETYYSDSVKGRFTISRDDSKSSVYLQMNNLRVEDMGIYYCTGSYYGMDYWGQGTSVTVS
chain 2: DVVMTQTPLSLPVSLGDQASISCRSSQSLVHSNGNTYLRWYLQKPGQSPKVLIYKVSNRFSGVPDRFSGSGSGTDFTLKISRVEAEDLGVYFCSQSTHVPWTFGGGTKLEIK

Tests used:
fluorescein = variants of: B1; assay: Kd (Tite-Seq); conditions: with fluorescein; format: scFv 4-4-20, heavy + light
[1] = variants of: B1; assay: yeast surface expression (ratio to wild type); higher = more expressed; conditions: format: scFv 4-4-20, heavy + light

chain 1 EVKLDETGGGLVQPGRPMKLSCVASGFTFSTYWMNCVRQSPEKGLEWVAQIRNKPYNYETYYSDSVKGRFTISRDDSKSSVYLQMNNLRVEDMGIYYCTGSYYGMDYWGQGTSVTVS chain 2 DVVMTQTPLSLPVSLGDQASISCRSSQSLVHSNGNTYLRWYLQKPGQSPKVLIYKVSNRFSGVPDRFSGSGSGTDFTLKISRVEAEDLGVYFCSQSTHVPWTFGGGTKLEIK [chain 1 D31T W36C] showed a Kd (fluorescein) of at least 10 µM and a yeast surface expression [1] of 0.789.

Variant chain 1 EVKLDETGGGLVQPGRPMKLSCVASGFTFSDYWMNWVRQSPEKGLEWVAQIRNKPYNYETYYSDSVKGRFTISRDDSKSSVYLQMNNLRVEDMGIYYCTGSYYGMWYFGQGTSVTVS chain 2 DVVMTQTPLSLPVSLGDQASISCRSSQSLVHSNGNTYLRWYLQKPGQSPKVLIYKVSNRFSGVPDRFSGSGSGTDFTLKISRVEAEDLGVYFCSQSTHVPWTFGGGTKLEIK [chain 1 D106W W108F] has a Kd (fluorescein) of at least 10 µM and a yeast surface expression [1] of 0.225.

chain 1 EVKLDETGGGLVQPGRPMKLSCVASGFDFSDYWGNWVRQSPEKGLEWVAQIRNKPYNYETYYSDSVKGRFTISRDDSKSSVYLQMNNLRVEDMGIYYCTGSYYGMDYWGQGTSVTVS chain 2 DVVMTQTPLSLPVSLGDQASISCRSSQSLVHSNGNTYLRWYLQKPGQSPKVLIYKVSNRFSGVPDRFSGSGSGTDFTLKISRVEAEDLGVYFCSQSTHVPWTFGGGTKLEIK [chain 1 T28D M34G] gave a Kd (fluorescein) of 3.94 µM and a yeast surface expression [1] of 0.865.

With chain 1 EVKLDETGGGLVQPGRPMKLSCVASGFTFSDQWMNVVRQSPEKGLEWVAQIRNKPYNYETYYSDSVKGRFTISRDDSKSSVYLQMNNLRVEDMGIYYCTGSYYGMDYWGQGTSVTVS chain 2 DVVMTQTPLSLPVSLGDQASISCRSSQSLVHSNGNTYLRWYLQKPGQSPKVLIYKVSNRFSGVPDRFSGSGSGTDFTLKISRVEAEDLGVYFCSQSTHVPWTFGGGTKLEIK [chain 1 Y32Q W36V] the Kd (fluorescein) was at least 10 µM and the yeast surface expression [1] was 0.479.

In the case of chain 1 EVKLDETGGGLVQPGRPMKLSCVASGFTFSDYWLNWTRQSPEKGLEWVAQIRNKPYNYETYYSDSVKGRFTISRDDSKSSVYLQMNNLRVEDMGIYYCTGSYYGMDYWGQGTSVTVS chain 2 DVVMTQTPLSLPVSLGDQASISCRSSQSLVHSNGNTYLRWYLQKPGQSPKVLIYKVSNRFSGVPDRFSGSGSGTDFTLKISRVEAEDLGVYFCSQSTHVPWTFGGGTKLEIK [chain 1 M34L V37T], the Kd (fluorescein) is reported as at least 10 µM and the yeast surface expression [1] is reported as 0.546.

In the case of chain 1 EVKLDETGGGLVQPGRPMKLSCVASGFTFSDYWMNWVRQSPEKGLEWVAQIRNKPYNYETYYSDSVKGRFTISRDDSKSSVYLQMNNLRVEDMGIYYCTGSYYQMDYWTQGTSVTVS chain 2 DVVMTQTPLSLPVSLGDQASISCRSSQSLVHSNGNTYLRWYLQKPGQSPKVLIYKVSNRFSGVPDRFSGSGSGTDFTLKISRVEAEDLGVYFCSQSTHVPWTFGGGTKLEIK [chain 1 G104Q G109T], the Kd (fluorescein) is reported as at least 10 µM and the yeast surface expression [1] is reported as 0.272.

In the case of chain 1 EVKLDETGGGLVQPGRPMKLSCVASGFTFSDYWQSWVRQSPEKGLEWVAQIRNKPYNYETYYSDSVKGRFTISRDDSKSSVYLQMNNLRVEDMGIYYCTGSYYGMDYWGQGTSVTVS chain 2 DVVMTQTPLSLPVSLGDQASISCRSSQSLVHSNGNTYLRWYLQKPGQSPKVLIYKVSNRFSGVPDRFSGSGSGTDFTLKISRVEAEDLGVYFCSQSTHVPWTFGGGTKLEIK [chain 1 M34Q N35S], the Kd (fluorescein) is reported as at least 10 µM and the yeast surface expression [1] is reported as 0.621.

chain 1 EVKLDETGGGLVQPGRPMKLSCVASGFTISDYWMIWVRQSPEKGLEWVAQIRNKPYNYETYYSDSVKGRFTISRDDSKSSVYLQMNNLRVEDMGIYYCTGSYYGMDYWGQGTSVTVS chain 2 DVVMTQTPLSLPVSLGDQASISCRSSQSLVHSNGNTYLRWYLQKPGQSPKVLIYKVSNRFSGVPDRFSGSGSGTDFTLKISRVEAEDLGVYFCSQSTHVPWTFGGGTKLEIK [chain 1 F29I N35I] showed a Kd (fluorescein) of at least 10 µM and a yeast surface expression [1] of 0.383.

chain 1 EVKLDETGGGLVQPGRPMKLSCVASGFTFSDYWMNWERQSPEKGLEWVAQIRNKPYNYETYYSDSVKGRFTISRDDSKSSVYLQMNNLRVEDMGIYYCTGSYYGMDYWGQGTSVTVS chain 2 DVVMTQTPLSLPVSLGDQASISCRSSQSLVHSNGNTYLRWYLQKPGQSPKVLIYKVSNRFSGVPDRFSGSGSGTDFTLKISRVEAEDLGVYFCSQSTHVPWTFGGGTKLEIK [chain 1 V37E] gave a Kd (fluorescein) of at least 10 µM and a yeast surface expression [1] of 0.597.

chain 1 EVKLDETGGGLVQPGRPMKLSCVASGFFHSDYWMNWVRQSPEKGLEWVAQIRNKPYNYETYYSDSVKGRFTISRDDSKSSVYLQMNNLRVEDMGIYYCTGSYYGMDYWGQGTSVTVS chain 2 DVVMTQTPLSLPVSLGDQASISCRSSQSLVHSNGNTYLRWYLQKPGQSPKVLIYKVSNRFSGVPDRFSGSGSGTDFTLKISRVEAEDLGVYFCSQSTHVPWTFGGGTKLEIK [chain 1 T28F F29H] showed a Kd (fluorescein) of at least 10 µM and a yeast surface expression [1] of 0.638.

chain 1 EVKLDETGGGLVQPGRPMKLSCVASGFTFSDYWMNAVRQSPEKGLEWVAQIRNKPYNYETYYSDSVKGRFTISRDDSKSSVYLQMNNLRVEDMGIYYCTGSYYGMDYWGQGTSVTVS chain 2 DVVMTQTPLSLPVSLGDQASISCRSSQSLVHSNGNTYLRWYLQKPGQSPKVLIYKVSNRFSGVPDRFSGSGSGTDFTLKISRVEAEDLGVYFCSQSTHVPWTFGGGTKLEIK [chain 1 W36A] gave a Kd (fluorescein) of at least 10 µM and a yeast surface expression [1] of 0.44.

chain 1 EVKLDETGGGLVQPGRPMKLSCVASGFTFSDYWMNWVRQSPEKGLEWVAQIRNKPYNYETYYSDSVKGRFTISRDDSKSSVYLQMNNLRVEDMGIYYCTGSYYGCDYWGQGTSVTVS chain 2 DVVMTQTPLSLPVSLGDQASISCRSSQSLVHSNGNTYLRWYLQKPGQSPKVLIYKVSNRFSGVPDRFSGSGSGTDFTLKISRVEAEDLGVYFCSQSTHVPWTFGGGTKLEIK [chain 1 M105C] showed a Kd (fluorescein) of 4.48 µM and a yeast surface expression [1] of 0.861.
